Assay results reported in publication PMC4392886 (Innate immunity, 2014).
No end group written: not given here.

Target: recombinant human TLR2 ectodomain (human, UniProt O60603 19-590, N-linked glycans, predominantly of the high-mannose type)
Assay: native gel or EMSA

Sequence of recombinant human TLR2 ectodomain (O60603 19-590): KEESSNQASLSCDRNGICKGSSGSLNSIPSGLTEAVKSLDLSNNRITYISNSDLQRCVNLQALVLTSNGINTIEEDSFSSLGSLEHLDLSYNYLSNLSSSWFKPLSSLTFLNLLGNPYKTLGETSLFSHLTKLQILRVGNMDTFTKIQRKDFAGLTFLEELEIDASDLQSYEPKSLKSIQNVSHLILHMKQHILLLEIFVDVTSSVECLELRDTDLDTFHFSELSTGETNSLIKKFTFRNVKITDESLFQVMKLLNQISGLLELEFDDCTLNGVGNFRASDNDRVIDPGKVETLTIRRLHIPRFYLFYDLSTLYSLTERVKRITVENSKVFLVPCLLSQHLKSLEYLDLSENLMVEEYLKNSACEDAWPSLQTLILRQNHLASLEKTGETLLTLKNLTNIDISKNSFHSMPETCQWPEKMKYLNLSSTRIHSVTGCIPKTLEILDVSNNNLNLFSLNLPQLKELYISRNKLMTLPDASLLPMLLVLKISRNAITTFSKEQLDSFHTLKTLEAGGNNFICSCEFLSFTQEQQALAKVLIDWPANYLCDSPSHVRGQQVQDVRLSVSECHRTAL

B1: S-(2,3-bis-palmitoyloxypropyl)-Cys-Gly-Asp-Pro-Lys-His-Pro-Lys-Ser-Phe-K-Aca-Aca-Fluorescein (peptide)
peptide: C(2,3‑bis‑palmitoyloxypropyl)GDPKHPKSFK-{Aca-Aca-Fluorescein}
binding result: binds
